Laboratory results published in patent EP4692126A1 (Sound Biopharmaceuticals Co. Ltd., dated 2026).
Positions count from the first letter of the chain named. Blank lines part the entries; values can stand above or below the binder they belong to.

What was measured:
5T4 EDC-Fc = target: T1, 5T4 EDC-Fc (UniProt Q13641 32-355); assay: SPR (Biacore), 5T4 EDC-Fc amine-coupled to CM5, antibody as analyte, 1:2 model
T1 construct: domain: EDC; Printed with molecular weight 65-120 kD; not shown: Fc part
T1 sequence (looked up): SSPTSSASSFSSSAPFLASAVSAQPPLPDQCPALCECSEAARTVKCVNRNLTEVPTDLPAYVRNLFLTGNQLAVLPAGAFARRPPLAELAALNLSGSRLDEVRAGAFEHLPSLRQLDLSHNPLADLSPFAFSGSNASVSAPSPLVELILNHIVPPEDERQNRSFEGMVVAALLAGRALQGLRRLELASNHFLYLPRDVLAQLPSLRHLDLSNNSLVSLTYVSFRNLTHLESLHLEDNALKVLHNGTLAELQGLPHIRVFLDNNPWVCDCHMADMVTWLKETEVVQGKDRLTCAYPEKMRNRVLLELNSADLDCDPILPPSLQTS

TPBG-His [1] = target: T2, TPBG-His (UniProt Q13641 32-355, limits assumed); assay: SPR (Biacore 8K), antibody captured on anti-human antibody CM5 chip, TPBG-His 300 nM, 1:1 model
T2 construct: probably the human protein, the same as m24; also called TPBG-His antigen; TPBG-His protein; not shown: His tag
T2 sequence (looked up): T1 sequence (looked up)

TPBG-His [2] = target: T2, TPBG-His; assay: ELISA, TPBG-His coated at 1 ug/ml, anti-human IgG Fc HRP detection
[3] = target: T3, mouse 5T4 antigen (TPBG-His, mouse) (mouse, UniProt Q9Z0L0 32-361, limits assumed); assay: ELISA, TPBG-His coated at 1 ug/ml
T3 construct: One of the '3 different species of TPBG-His' coated in the cross reactivity ELISA; also called mouse TPBG-His; not shown: His tag
T3 sequence (looked up): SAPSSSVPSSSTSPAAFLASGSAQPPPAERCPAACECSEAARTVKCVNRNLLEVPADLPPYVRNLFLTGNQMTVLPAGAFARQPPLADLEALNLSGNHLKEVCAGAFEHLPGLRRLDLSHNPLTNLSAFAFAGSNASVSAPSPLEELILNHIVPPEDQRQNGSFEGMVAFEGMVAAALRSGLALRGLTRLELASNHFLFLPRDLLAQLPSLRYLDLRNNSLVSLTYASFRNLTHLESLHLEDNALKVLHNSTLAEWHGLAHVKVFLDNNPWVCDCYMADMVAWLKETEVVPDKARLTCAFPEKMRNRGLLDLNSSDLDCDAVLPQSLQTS

TPBG-His [4] = target: T2, TPBG-His; assay: SPR (Biacore), TPBG-His amine-coupled to CM5, antibody as analyte, 1:1 model

B1: antibody B5 (antibody, V domains shown)
VH: EVQLVESGGGLVKPGGSLKLSCAASGFTFRNYAMSWVRQSPDKRLEWVAEISTGGSYTYYPDTVTGRFTISRDNAKNTLYLEMSSLRSEDTAMYYCAFYYYGSSYSMDYWGQGTSVTVSS
VL: DIQMTQTTSSLSASLGDRVTISCRASQDISNYLNWYQQKPDGTVKLLIYHTSILHSGVPSRFSGSGSGTDYSLTISNLEQEDIATYFCQQGDTVPLTFGAGTKLELK
notes: Monoclonal antibody from hybridoma of immunized BALB/c mice
Kd (5T4 EDC-Fc): 0.018 nM | koff (5T4 EDC-Fc): 1.45e-05 s⁻¹ | kon (5T4 EDC-Fc): 803000 M⁻¹ s⁻¹

B2: hB5-2-12 (antibody, human IgG1, kappa)
heavy: not shown
light: DIQMTQSPSSLSASVGDRVTISCRASQDISNYLNWYQQKPGKAPKLLIYHTSILHSGVPSRFSGSGSGTDYSLTISSLQPEDFATYFCQQGDTVPLTFGGGTKVEIKRTVAAPSVFIFPPSDEQLKSGTASVVCLLNNFYPREAKVQWKVDNALQSGNSQESVTEQDSKDSTYSLSSTLTLSKADYEKHKVYACEVTHQGLSSPVTKSFNRGEC
notes: Humanized IgG1 kappa
Kd (TPBG-His [1]): 0.785 nM | koff (TPBG-His [1]): 0.000298 s⁻¹ | kon (TPBG-His [1]): 380000 M⁻¹ s⁻¹

B3: hB5-2-5 (antibody, human IgG1, kappa, V domains shown)
VH: EVQLVESGGGLVQPGGSLRLSCAASGFTFRNYAMSWVRQAPGKGLEWVAEISTGGSYTYYPDTVTGRFTISRDNSKNTLYLQMNSLRAEDTAVYYCAFYYYGSSYSMDYWGQGTLVTVSS
VL: DIQMTQSPSSLSASVGDRVTISCRASQDISNYLNWYQQKPGKAPKLLIYHTSILHSGVPSRFSGSGSGTDYSLTISSLQPEDIATYFCQQGDTVPLTFGGGTKVEIKR
notes: Humanized IgG1 kappa
Kd (TPBG-His [1]): 0.827 nM | koff (TPBG-His [1]): 0.000279 s⁻¹ | kon (TPBG-His [1]): 337000 M⁻¹ s⁻¹

B5: hB5-2-19 (antibody, human IgG1, kappa)
heavy: not shown
light: B2 light with S7T, P8T, Y36F, L46S, R61K
notes: Humanized IgG1 kappa
Kd (TPBG-His [1]): 0.88 nM | koff (TPBG-His [1]): 0.000348 s⁻¹ | kon (TPBG-His [1]): 396000 M⁻¹ s⁻¹

B8: hB5-2-2 (antibody, human IgG1, kappa, V domains shown)
VH: B3 VH with S75A, T78S
VL: B3 VL with A43V, I83V
notes: Humanized IgG1 kappa
Kd (TPBG-His [1]): 2.36 nM | koff (TPBG-His [1]): 0.000527 s⁻¹ | kon (TPBG-His [1]): 223000 M⁻¹ s⁻¹

B9: hB5-2-3 (antibody, human IgG1, kappa, V domains shown)
VH: B3 VH with S75A, T78S
VL: B3 VL with S7T, P8T, Y36F, L46S, R61K, I83F
notes: Humanized IgG1 kappa
Kd (TPBG-His [1]): 1.87 nM | koff (TPBG-His [1]): 0.000681 s⁻¹ | kon (TPBG-His [1]): 364000 M⁻¹ s⁻¹

B10: hB5-2-8 (antibody, human IgG1, kappa, V domains shown)
VH: B3 VH
VL: B3 VL with I83F
notes: Humanized IgG1 kappa
Kd (TPBG-His [1]): 0.95 nM | koff (TPBG-His [1]): 0.000302 s⁻¹ | kon (TPBG-His [1]): 318000 M⁻¹ s⁻¹

B11: hB5-2-13 (antibody, human IgG1, kappa, V domains shown)
VH: B3 VH with L11V, G16R, N84S
VL: B3 VL
notes: Humanized IgG1 kappa
Kd (TPBG-His [1]): 0.721 nM | koff (TPBG-His [1]): 0.000313 s⁻¹ | kon (TPBG-His [1]): 434000 M⁻¹ s⁻¹

B12: hB5-2-6 (antibody, human IgG1, kappa, V domains shown)
VH: B3 VH
VL: B3 VL with A43V, I83V
notes: Humanized IgG1 kappa
Kd (TPBG-His [1]): 1.53 nM | koff (TPBG-His [1]): 0.000497 s⁻¹ | kon (TPBG-His [1]): 326000 M⁻¹ s⁻¹

B13: hB5-2-18 (antibody, human IgG1, kappa)
heavy: not shown
light: B2 light with A43V, F83V
notes: Humanized IgG1 kappa
Kd (TPBG-His [1]): 2.07 nM | koff (TPBG-His [1]): 0.00061 s⁻¹ | kon (TPBG-His [1]): 294000 M⁻¹ s⁻¹

B15: hB5-2-11 (antibody, human IgG1, kappa)
heavy: not shown
light: B2 light with S7T, P8T, Y36F, L46S, R61K
notes: Humanized IgG1 kappa
Kd (TPBG-His [1]): 1.39 nM | koff (TPBG-His [1]): 0.000431 s⁻¹ | kon (TPBG-His [1]): 310000 M⁻¹ s⁻¹

B18: hB5-2-1 (antibody, human IgG1, kappa, V domains shown)
VH: B3 VH with S75A, T78S
VL: B3 VL
notes: Humanized IgG1 kappa
Kd (TPBG-His [1]): 1.11 nM | koff (TPBG-His [1]): 0.000388 s⁻¹ | kon (TPBG-His [1]): 351000 M⁻¹ s⁻¹

B19: hB5-2-4 (antibody, human IgG1, kappa, V domains shown)
VH: B3 VH with S75A, T78S
VL: B3 VL with I83F
notes: Humanized IgG1 kappa
Kd (TPBG-His [1]): 0.845 nM | koff (TPBG-His [1]): 0.000298 s⁻¹ | kon (TPBG-His [1]): 353000 M⁻¹ s⁻¹

B21: hB5-2-7 (antibody, human IgG1, kappa, V domains shown)
VH: B3 VH
VL: B3 VL with S7T, P8T, Y36F, L46S, R61K, I83F
notes: Humanized IgG1 kappa
Kd (TPBG-His [1]): 0.869 nM | koff (TPBG-His [1]): 0.000342 s⁻¹ | kon (TPBG-His [1]): 393000 M⁻¹ s⁻¹

Continued by falling Kd (TPBG-His [1]), values first:

EC50 (TPBG-His [2]): 2.8 ng/mL | Kd (TPBG-His [1]): 2.31 nM | koff (TPBG-His [1]): 0.000487 s⁻¹ | kon (TPBG-His [1]): 211000 M⁻¹ s⁻¹ | Kd (TPBG-His [4]): 2.92 nM | koff (TPBG-His [4]): 0.000627 s⁻¹ | kon (TPBG-His [4]): 215000 M⁻¹ s⁻¹
B20: hB5-2-10 (antibody, human IgG1, kappa)
heavy: not shown
light: B2 light with A43V, F83V
notes: Humanized IgG1 kappa; also called humanized antibody hB5-2-10
binding result [3]: no binding (tested: highest concentration tested 20000 ng/ml)

Kd (TPBG-His [1]): 1.95 nM | koff (TPBG-His [1]): 0.000632 s⁻¹ | kon (TPBG-His [1]): 324000 M⁻¹ s⁻¹
B14: hB5-2-15 (antibody, human IgG1, kappa, V domains shown)
VH: B3 VH with L11V, G16R, N84S
VL: B3 VL with S7T, P8T, Y36F, L46S, R61K, I83F
notes: Humanized IgG1 kappa

Kd (TPBG-His [1]): 1.74 nM | koff (TPBG-His [1]): 0.000774 s⁻¹ | kon (TPBG-His [1]): 445000 M⁻¹ s⁻¹
B6: hB5-2-14 (antibody, human IgG1, kappa, V domains shown)
VH: B3 VH with L11V, G16R, N84S
VL: B3 VL with A43V, I83V
notes: Humanized IgG1 kappa

Kd (TPBG-His [1]): 0.95 nM | koff (TPBG-His [1]): 0.000302 s⁻¹ | kon (TPBG-His [1]): 318000 M⁻¹ s⁻¹
B7: hB5-2-20 (antibody, human IgG1, kappa)
heavy: not shown
light: B2 light
notes: Humanized IgG1 kappa

Kd (TPBG-His [1]): 0.927 nM | koff (TPBG-His [1]): 0.000278 s⁻¹ | kon (TPBG-His [1]): 299000 M⁻¹ s⁻¹
B4: hB5-2-9 (antibody, human IgG1, kappa)
heavy: not shown
light: B2 light with F83I
notes: Humanized IgG1 kappa

Kd (TPBG-His [1]): 0.902 nM | koff (TPBG-His [1]): 0.000317 s⁻¹ | kon (TPBG-His [1]): 351000 M⁻¹ s⁻¹
B16: hB5-2-17 (antibody, human IgG1, kappa)
heavy: not shown
light: B2 light with F83I
notes: Humanized IgG1 kappa

Kd (TPBG-His [1]): 0.634 nM | koff (TPBG-His [1]): 0.000347 s⁻¹ | kon (TPBG-His [1]): 547000 M⁻¹ s⁻¹
B17: hB5-2-16 (antibody, human IgG1, kappa, V domains shown)
VH: B3 VH with L11V, G16R, N84S
VL: B3 VL with I83F
notes: Humanized IgG1 kappa
